# B1: G228C CD19-CysCAR (anti-CD19 CAR with the scFv FMC63, CD19-41BB-CAR format, G228C) (scFv, V domains shown)
# VH: EVKLQESGPGLVAPSQSLSVTCTVSGVSLPDYGVSWIRQPPRKGLEWLGVIWGSETTYYNSALKSRLTIIKDNSKSQVFLKMNSLQTDDTAIYYCAKHYYYGCSYAMDYWGQGTSVTVSS
# VL: DIQMTQTTSSLSASLGDRVTISCRASQDISKYLNWYQQKPDGTVKLLIYHTSRLHSGVPSRFSGSGSGTDYSLTISNLEQEDIATYFCQQGNTLPYTFGGGTKLEIT
# notes: scFv FMC63 (light chain domain, linker, heavy chain domain); CD8-derived hinge and transmembrane domains (Kymriah format); 4-1BB costimulatory domain (Kymriah format); Chimeric antigen receptor on T cells; source: primary human T cells, lentiviral transduction, on cells
# Biological target: T1, recombinant, fluorescently labeled CD19 (Homo sapiens, UniProt P15391, fluorescent label (dye and site not stated))
# T1 construct: CD19, B-lymphocyte antigen; In the functional rows this molecule stands for CD19 on JeKo-1 WT cells
# T1 sequence (P15391 21-277): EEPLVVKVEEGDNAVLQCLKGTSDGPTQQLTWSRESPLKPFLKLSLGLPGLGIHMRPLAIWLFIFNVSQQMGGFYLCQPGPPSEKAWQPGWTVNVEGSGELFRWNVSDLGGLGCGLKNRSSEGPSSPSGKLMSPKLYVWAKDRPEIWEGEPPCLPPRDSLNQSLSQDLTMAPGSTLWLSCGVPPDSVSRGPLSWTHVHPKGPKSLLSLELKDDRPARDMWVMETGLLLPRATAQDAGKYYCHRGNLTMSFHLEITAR
# Experiment: flow cytometry on cells; recombinant, fluorescently labeled CD19 on CAR-transduced T cells, compared to nontransduced T cells; methods in the Supporting Information
# Settings: one partner purified
binder,measurement,value
B1,binding result,binds
